Measurements published in publication PMC8840930, “PSTPIP1-LYP phosphatase interaction: structural basis and implications for autoinflammatory disorders” (Cellular and Molecular Life Sciences: CMLS, 2022).
Where “and” joins values, the source holds several entries; their conditions need not be identical. Identical values can stand only once. Ends that are not written are not given here.

B1: LYP-CTH peptide, unlabeled (residues 787-807) (peptide)
peptide: GFANRFSKPKGPRNPPPTWNI
notes: LYP (PTPN22), human, UniProt Q9Y2R2-1, region 787-807 (C-terminal homology segment, CTH); also called unlabeled LYP-CTH; peptide of the CTH of LYP; source: synthetic peptide (custom synthesized, Genosphere Biotechnologies, France)
B2: unlabeled peptide of the CTH of LYP (residues 787-807) (peptide)
peptide: GFANRFSKPKGPRNPPPTWNI
notes: lymphoid phosphatase LYP (PTPN22), human, C-terminal homology segment, region 787-807; also called LYP-CTH; source: synthetic peptide (Genosphere Biotechnologies)
B3: F-BAR domain of PSTPIP1 (residues 1-289), G258A (domain or fragment)
chain: not shown
notes: PSTPIP1, human, UniProt O43586, residues 1-289 (F-BAR domain), patient mutation G258A; homodimer in the crystal; also called G258A mutant; PSTPIP1-G258A; not shown: poly-His, N-terminal, cleaved
B4: F-BAR domain of PSTPIP1 (residues 1-289), wild type (domain or fragment)
chain: not shown
notes: PSTPIP1, human, UniProt O43586, region 1-289 (F-BAR domain); modified pET15b with TEV site; homodimer in the crystals; also called wild type F-BAR; F-BAR of PSTPIP1; not shown: poly-His, N-terminal, cleaved
B5: F-BAR domain of PSTPIP1 (residues 1-289), E250Q (domain or fragment)
chain: not shown
notes: PSTPIP1, human, UniProt O43586, region 1-289 (F-BAR domain), patient mutation E250Q; not shown: poly-His, N-terminal, cleaved
B6: fluorescein-LYP-CTH (peptide)
peptide: fluorescein-GFANRFSKPKGPRNPPPTWNI
notes: LYP (PTPN22), human, UniProt Q9Y2R2-1, region 787-807 (C-terminal homology segment, CTH); also called fluorescein-labeled LYP-CTH; synthetic peptide of the CTH of LYP (residues 787-807) labeled with fluorescein; source: synthetic peptide (custom synthesized, Thermo Scientific, Germany)
B7: F-BAR domain of PSTPIP1 (residues 1-289), W232A (domain or fragment)
chain: not shown
notes: PSTPIP1, human, UniProt O43586, region 1-289 (F-BAR domain), W232A; not shown: poly-His, N-terminal, cleaved

Experiments:
[1] = biological target: B4; assay: ITC; 25 °C; F-BAR of PSTPIP1 in the cell (26.2-30.6 µM), unlabeled LYP-CTH peptide in the syringe (146.8-155.2 µM); 20 mM sodium phosphate pH 7.5, 150 mM NaCl, 5% DMSO; single set of identical sites model; details: both partners purified
[2] = biological target: T1, F-BAR domain of PSTPIP1 (residues 1-289), wild type (human, UniProt O43586 1-289); assay: ITC; unlabeled LYP-CTH peptide in the syringe, F-BAR of PSTPIP1 in the cell; 25 °C; 20 mM sodium phosphate (pH 7.5), 150 mM NaCl, 5% (v/v) DMSO; single set of identical sites model; three single experiments; details: both partners purified
T1 construct: His tag cleaved with TEV protease; forms the F-BAR dimer in the crystal; also called PSTPIP1 F-BAR (1-289); F-BAR of PSTPIP1; not shown: poly-His, N-terminal, cleaved

[3] = biological target: the molecule itself; assay: crystal structure; F-BAR domain of PSTPIP1 (1-289) alone, G258A and wild type; space group P212121, two molecules in the asymmetric unit
[4] = biological target: B6; assay: fluorescence polarisation; fluorescence anisotropy under saturation conditions; fluorescein-LYP-CTH at 1 µM titrated with the F-BAR of PSTPIP1; stoichiometry from the intersection of asymptotes; details: both partners purified
[5] = biological target: B6; assay: fluorescence polarisation; fluorescence anisotropy; fluorescein-LYP-CTH (2 nM) titrated with the F-BAR of PSTPIP1; 20 mM Tris/HCl pH 7.5, 150 mM NaCl, 0.1 mg/mL BSA; 25 °C; apparent kd, one-to-one binding model; details: both partners purified
[6] = biological target: B4; assay: as above; details: both partners purified
[7] = biological target: T2, F-BAR domain of PSTPIP1 (residues 1-289), A230T (human, UniProt O43586 1-289, A230T); assay: as above; details: both partners purified
T2 construct: PSTPIP1, human, UniProt O43586, region 1-289 (F-BAR domain), patient mutation A230T; also called A230T mutant; not shown: poly-His, N-terminal, cleaved
T2 sequence (O43586 1-289 A230T): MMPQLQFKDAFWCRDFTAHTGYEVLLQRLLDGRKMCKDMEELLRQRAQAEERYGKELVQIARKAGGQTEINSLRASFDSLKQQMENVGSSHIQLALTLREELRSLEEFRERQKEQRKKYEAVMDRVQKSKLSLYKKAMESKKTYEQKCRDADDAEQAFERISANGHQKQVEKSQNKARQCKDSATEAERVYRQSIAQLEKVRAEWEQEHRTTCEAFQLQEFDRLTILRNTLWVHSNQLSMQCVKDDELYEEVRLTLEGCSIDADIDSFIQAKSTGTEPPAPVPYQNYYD

Binder: B1
Kd [1]: 253 nM | stoichiometry N [1]: 0.48 molecules of LYP-CTH for each PSTPIP1

Binder: B2
Kd [2]: 263 nM and 229 nM and 267 nM | stoichiometry N [2]: 0.5 and 0.49 and 0.46

Binder: B3
stoichiometry N [3]: 2

Binder: B4
stoichiometry N [4]: 2 molecules of PSTPIP1 for each LYP-CTH | binding result [3]: binds

Binder: B5
fold lower binding affinity than the wild type F-BAR [5]: ~60 fold

Binder: B6
Kd [6]: ~20 nM | Kd [7]: ~20 nM

Binder: B7
fold lower binding affinity than the wild type F-BAR [5]: ~60 fold
